Data on 58 substances can be found in the supplement of paper PMC12042874.

± gives the uncertainty stated by the source.

The data set is described as follows: amyloid nucleation score (Sup35N fusion, yeast selection) (log enrichment); library NNK2; higher = more nucleation; inactive = no reads after selection. The procedure, abridged:
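Nucleation score: DiMSum log enrichment of output over input reads, centred on the mode score of non-aggregating sequences. Only sequences with at least 100 input reads were kept. Reads came from Illumina sequencing of plasmid inserts before and after 7 days of growth at 30°C without adenine and uracil, in psi-negative yeast expressing Sup35N fused to peptides of 20 random codons after 24 hours of induction with 100 μM copper sulfate.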
In the case of KFKFKESGFEVVSLGGMVTP, the amyloid nucleation score result is “inactive”.

The substance VFFLFYTMWRLVYFEPNMKS gave an amyloid nucleation score of -1.25 ± 0.62. The value for VIWIRTIKMHACTYVQQDVL was 0.806 ± 0.45; that for FIAGLS was -0.734 ± 0.76; that for CYMTFYVMLTLDRTQSHSGH was 7.411 ± 0.051. The value for ARFFLHFG was 6.2 ± 0.074; that for PLFTINRVVMPNINVETFAG was -0.522 ± 0.39; that for AYVIRAKEC was 0.162 ± 0.39. Regarding NFNGGCKFKGDYYRKA, the amyloid nucleation score came to 1.14 ± 0.26. For TAAVILLIVNRDANA the value was 1.94 ± 0.14; for GNMVFAPCDL, 1.07 ± 0.2; for FKILCFSHGNNRM, 2.07 ± 0.19.

The substance DPAELQ registered an amyloid nucleation score of -0.256 ± 0.79. The value for FGLSITECGWVVLCMVWVPR was 0.246 ± 0.17; that for HSLLSYMFSFQLTNMNCDLG was -0.117 ± 0.56; that for HRSCVDTDVSDGWKGVESEA was 0.599 ± 0.64.

In turn, ALNLIV displayed an amyloid nucleation score of -0.572 ± 0.32. The value for DKLVRWHLGMLIGGRGSCLF was 0.294 ± 0.8; that for CKIRNDSSSSRLVIHILDTA was 6.357 ± 0.059; that for HAMWCFGFIVLGGGNDIRIW was 8.219 ± 0.045.

Substance SILATYPMVRSRISIMNATL came in with an amyloid nucleation score of -0.174 ± 0.28. The value for LMLNWCTLGLVHC was 0.004 ± 0.61.

FGMFM: the amyloid nucleation score was -0.228 ± 0.32. The value for LKPCLRFFNIIT was 3.44 ± 0.1; that for IYSYYGCYLCRNCGLVKFSK was 4.03 ± 0.07. KILDWRGWSRGSGPLTSSTW had an amyloid nucleation score of 1.04 ± 0.38. On to HNYAVS, for which the amyloid nucleation score was -0.711 ± 0.54. As to CSCQAVLLLASSRPAIKVRC, the amyloid nucleation score was 1.86 ± 0.31. RIATLSFDSAIIQVYLRGSG: the amyloid nucleation score was 7.028 ± 0.033. For the substance SQLLDSLQNGRGCYSM, the amyloid nucleation score result is “inactive”.

For the substance VVNKLF, the amyloid nucleation score entry is “inactive”. With CHVFTSSSTRSLWTSDIIPS, the amyloid nucleation score came out at 0.218 ± 0.48. For YDDHDFNRAGGLTVTNVWMV the value was 3.64 ± 0.1; for VATLRSRHFDEHSHVVFSSS, 0.236 ± 0.29. For IFYYG the value was -0.945 ± 0.36. The value for RIQINWDEFGQDRELRVSGR was 0.75 ± 0.5. Take YNKRVSWKYWMWHEYAMRGW: the amyloid nucleation score was determined as 5.21 ± 0.057. For FSSLRILTERENFHLVSGVH the value was -1 ± 0.78; for FYRTSRASAGLS, -0.237 ± 0.79.

VFLSGINH registered an amyloid nucleation score of -1.18 ± 1.1. For GLLLGMVFFCGSSTTNMGGI the value was 5.902 ± 0.051; for FICYNTRRVVCIYLRL, 0.456 ± 0.74; for CNRESEWIECVRGFLEYANG, 1.44 ± 0.11. Take MTCRRCNNAMWSGLLRLKIY: the amyloid nucleation score is 2.97 ± 0.17. The value for NVFMRYTKFYMCLELGNCWG was -0.331 ± 0.5; that for SRLISTHTAT was “inactive”. For HAPPNCVSSIHSRRVSSWHE, the amyloid nucleation score is 0.333 ± 0.65. The value for RHPGPAL was 0.857 ± 0.25.

Consider DQDSNSFAQSVVSHNVLVNI, for which the amyloid nucleation score result was “inactive”.

SDAVSSILSFYRVPRAVGPE: the amyloid nucleation score result is “inactive”.

As to GYFKRHLRM, the amyloid nucleation score was -0.619 ± 1. The value for GSRDHKPWTNRMWFTYTVIR was 0.028 ± 0.17.

MMHEYAAGGLSSGLFWDMSG: the amyloid nucleation score is -0.623 ± 0.63. The value for LLWSTILMFWF was “inactive”.

Consider FNLTICSLDVPTFL, for which the amyloid nucleation score was -0.549 ± 1. The value for RECNRNFQKSGSSEHETGLG was -0.844 ± 0.54. The value for DIVNLSEDGLSSNELFIARM was -0.52 ± 1.1; that for TDLYTCDVLRVLVCAH was -0.011 ± 0.45.
